Source: article PMC10003956, “To the Understanding of Catalysis by D-Amino Acid Transaminases: A Case Study of the Enzyme from Aminobacterium colombiense” (Molecules, 2023)

Tests used:
purified protein [1] = substrate: N[C@H](CCC(=O)O)C(=O)O; assay: purified protein; assay type: biochemical, Aminobacterium colombiense; conditions: 500 mM pyruvate, 60 µM PLP, 50 mM K-phosphate, pH 8.0, 60 °C
purified protein [2] = substrate: O=C(O)CCC(=O)C(=O)O; assay: purified protein; assay type: biochemical, Aminobacterium colombiense; conditions: 500 mM D-alanine, 60 µM PLP, 50 mM CHES, pH 9.0, 60 °C

B1: AmicoTA (Aminobacterium colombiense DSM 12261) (protein)
chain: MNLCYIDGKFLPLEEAKLPVTDLIIQRGVGVFETISTHSRRPLMLTPHLKRLEGSATASSIVMPATLDEMARIIREGIKKMGCETMVRPYITGGDSFGKDHLFSSSRYFVIFEEIRKPDPILYEKGVALHPINAERYLPSTKSINYMLSFTGQRDSKGAYEILYCPEGEIVEGSHSTFFLIKNGHLITAPTSRALSGTTRQIVLELARRGNIQVEERCPLLTELPEAEEAFITGTVKELLPVVRIGDQIIGNGVPGKLTKHLHQVYLSSIVEWLE
notes: N-terminal His6-TEV tag kept for kinetics, cut for crystals; E. coli Rosetta (DE3) pLysS
Km (purified protein [1]): 5.2 ± 0.6 mM | kcat (purified protein [1]): 1.4 ± 0.06 s⁻¹ | kcat/Km (purified protein [1]): 270 ± 40 M⁻¹ s⁻¹ | Km (purified protein [2]): 7.2 ± 0.8 mM | kcat (purified protein [2]): 9.9 ± 1.3 s⁻¹ | kcat/Km (purified protein [2]): 1380 ± 330 M⁻¹ s⁻¹
